In patent publication US7183387 (Genentech, dated 2007):

T1: human FcγRIIA-Arg131 α subunit extracellular domain-His6-GST fusion (human, UniProt P12318 34-217)
T1 construct: extracellular domain; also called FcγRIIA-R131; not shown: glutathione S transferase (GST)
T1 sequence: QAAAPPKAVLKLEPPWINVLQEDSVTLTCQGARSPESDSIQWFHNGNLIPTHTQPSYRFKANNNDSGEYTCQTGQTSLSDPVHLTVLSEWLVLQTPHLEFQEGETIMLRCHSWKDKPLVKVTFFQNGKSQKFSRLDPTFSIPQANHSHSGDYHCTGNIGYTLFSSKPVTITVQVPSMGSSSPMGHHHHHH

T2: human FcγRIIB α subunit extracellular domain-His6-GST fusion (human, UniProt P31994 43-217)
T2 construct: extracellular domain; also called CD32; not shown: glutathione S transferase (GST)
T2 sequence: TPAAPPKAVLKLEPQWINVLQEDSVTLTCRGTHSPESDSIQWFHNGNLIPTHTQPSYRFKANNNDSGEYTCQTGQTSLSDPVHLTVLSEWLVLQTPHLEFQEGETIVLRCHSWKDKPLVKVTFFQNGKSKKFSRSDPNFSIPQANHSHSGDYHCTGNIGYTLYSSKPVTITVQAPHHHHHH

B1: anti-IgE E27 IgG1 Asn276Ala (antibody)
heavy: not shown
light: DIQLTQSPSSLSASVGDRVTITCRASKPVDGEGDSYLNWYQQKPGKAPKLLIYAASYLESGVPSRFSGSGSGTDFTLTISSLQPEDFATYYCQQSHEDPYTFGQGTKVEIKRTVAAPSVFIFPPSDEQLKSGTASVVCLLNNFYPREAKVQWKVDNALQSGNSQESVTEQDSKDSTYSLSSTLTLSKADYEKHKVYACEVTHQGLSSPVTKSFNRGEC
B2: anti-IgE E27 IgG1 Lys317Ala (antibody)
heavy: not shown
light: B1 light
notes: also called Lys317A1a
B3: anti-IgE E27 IgG1 Gln311Ala (antibody)
heavy: not shown
light: B1 light
B4: anti-IgE E27 IgG1 Glu430Ala (antibody)
heavy: not shown
light: B1 light
B5: anti-IgE E27 IgG1 Glu269Ala (antibody)
heavy: not shown
light: B1 light
notes: also called E269(282)A
B6: anti-IgE E27 IgG1 Glu333Ala (antibody)
heavy: not shown
light: B1 light
notes: also called G54 E333A
B7: anti-IgE E27 IgG1 Glu382Ala (antibody)
heavy: not shown
light: B1 light
B8: anti-IgE E27 IgG1 Gln295Ala (antibody)
heavy: not shown
light: B1 light
notes: also called Q295(312)A
B9: anti-IgE E27 IgG1 Gln362Ala (antibody)
heavy: not shown
light: B1 light
notes: also called Gln362A1a
B10: anti-IgE E27 IgG1 His268Ala (antibody)
heavy: not shown
light: B1 light
notes: also called H281A (268 in EU numbering); G16 H268A
B11: anti-IgE E27 IgG1 Lys290Ala (antibody)
heavy: not shown
light: B1 light
notes: also called K290(307)A
B12: anti-IgE E27 IgG1 Asp280Ala (antibody)
heavy: not shown
light: B1 light
B13: anti-IgE E27 IgG1 Glu258Ala (antibody)
heavy: not shown
light: B1 light
B14: anti-IgE E27 IgG1 Asn286Ala (antibody)
heavy: not shown
light: B1 light
B15: anti-IgE E27 IgG1 Lys326Ala (antibody)
heavy: not shown
light: B1 light
B16: anti-IgE E27 IgG1 Glu272Ala (antibody)
heavy: not shown
light: B1 light
B17: anti-IgE E27 IgG1 His285Ala (antibody)
heavy: not shown
light: B1 light
B18: anti-IgE E27 IgG1 Lys288Ala (antibody)
heavy: not shown
light: B1 light
B19: anti-IgE E27 IgG1 Pro238Ala (antibody)
heavy: not shown
light: B1 light
B20: anti-IgE E27 IgG1 Lys338Ala (antibody)
heavy: not shown
light: B1 light
B21: anti-IgE E27 IgG1 Lys334Ala (antibody)
heavy: not shown
light: B1 light
notes: also called G55 K334A
B22: anti-IgE E27 IgG1 Asp376Ala (antibody)
heavy: not shown
light: B1 light
B23: anti-IgE E27 IgG1 Asp312Ala (antibody)
heavy: not shown
light: B1 light
B24: anti-IgE E27 IgG1 Lys360Ala (antibody)
heavy: not shown
light: B1 light
B25: anti-IgE E27 IgG1 Asn315Ala (antibody)
heavy: not shown
light: B1 light
B26: anti-IgE E27 IgG1 Asp265Ala (antibody)
heavy: not shown
light: B1 light
notes: also called G14 D265A
B27: anti-IgE E27 IgG1 His433Ala (antibody)
heavy: not shown
light: B1 light
B28: anti-IgE E27 IgG1 Leu309Ala (antibody)
heavy: not shown
light: B1 light
B29: anti-IgE E27 IgG1 Ile253Ala (antibody)
heavy: not shown
light: B1 light

Each binder was assayed against T1, human FcγRIIA-Arg131 α subunit … (assay: hexamer ELISA).

| Binder | ratio to native IgG1 |
| --- | --- |
| B1 | 1.29 ratio |
| B2 | 1.13 ratio |
| B3 | 1.11 ratio |
| B4 | 1.24 ratio |
| B5 | 0.65 ratio |
| B6 | 0.92 ratio |
| B7 | 0.95 ratio |
| B8 | 0.62 ratio |
| B9 | 1.03 ratio |
| B10 | 1.21 ratio |
| B11 | 1.3 ratio |
| B12 | 1.34 ratio |
| B13 | 1.33 ratio |
| B14 | 1.24 ratio |
| B15 | 1.23 ratio |
| B16 | 1.23 ratio |
| B17 | 1.26 ratio |
| B18 | 1.15 ratio |
| B19 | 0.38 ratio |
| B20 | 0.78 ratio |
| B21 | 1.01 ratio |
| B22 | 0.8 ratio |
| B23 | 1.2 ratio |
| B24 | 1.12 ratio |
| B25 | 1.15 ratio |
| B26 | 0.07 ratio |
| B27 | 0.92 ratio |
| B28 | 1.13 ratio |
| B29 | 1.14 ratio |

What follows are binders tested against T2, human FcγRIIB α subunit extracellular … (assay: hexamer ELISA).

| Binder | ratio to native IgG1 |
| --- | --- |
| B1 | 1.34 ratio |
| B2 | 1.18 ratio |
| B3 | 1.19 ratio |
| B4 | 1.28 ratio |
| B5 | 0.75 ratio |
| B6 | 0.76 ratio |
| B7 | 0.84 ratio |
| B8 | 0.5 ratio |
| B9 | 1.02 ratio |
| B10 | 1.44 ratio |
| B11 | 1.38 ratio |
| B12 | 1.6 ratio |
| B13 | 1.65 ratio |
| B14 | 1.36 ratio |
| B15 | 1.41 ratio |
| B16 | 1.53 ratio |
| B17 | 1.23 ratio |
| B18 | 1.14 ratio |
| B19 | 0.36 ratio |
| B20 | 0.63 ratio |
| B21 | 0.9 ratio |
| B22 | 0.68 ratio |
| B23 | 1.19 ratio |
| B24 | 1.12 ratio |
| B25 | 1.3 ratio |
| B26 | 0.13 ratio |
| B27 | 0.79 ratio |
| B28 | 1.26 ratio |
| B29 | 1.18 ratio |

What follows are binders tested against T3, human FcγRIIIA-Phe158 α subunit extracellular domain-His6-GST fusion (human, UniProt P08637 17-208) (assay: hexamer ELISA).
T3 construct: extracellular domain; also called FcγRIIIA-F158; CD16; not shown: glutathione S transferase (GST)
T3 sequence (P08637 other isoform, or with tags, fused parts or gaps): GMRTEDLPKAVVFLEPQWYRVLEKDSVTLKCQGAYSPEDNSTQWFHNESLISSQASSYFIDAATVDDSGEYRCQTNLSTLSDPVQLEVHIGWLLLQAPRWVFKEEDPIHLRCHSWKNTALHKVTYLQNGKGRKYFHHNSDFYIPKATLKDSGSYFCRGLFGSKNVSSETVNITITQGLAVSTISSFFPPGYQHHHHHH

| Binder | ratio to native IgG1 |
| --- | --- |
| B1 | 0.95 ratio |
| B2 | 1.1 ratio |
| B3 | 0.92 ratio |
| B4 | 1.2 ratio |
| B5 | 0.45 ratio |
| B6 | 1.27 ratio |
| B7 | 0.76 ratio |
| B8 | 0.25 ratio |
| B9 | 1.02 ratio |
| B10 | 0.54 ratio |
| B11 | 1.31 ratio |
| B12 | 1.09 ratio |
| B13 | 1.12 ratio |
| B14 | 1.05 ratio |
| B15 | 1.23 ratio |
| B16 | 0.8 ratio |
| B17 | 0.87 ratio |
| B18 | 1.06 ratio |
| B19 | 0.07 ratio |
| B20 | 0.15 ratio |
| B21 | 1.39 ratio |
| B22 | 0.55 ratio |
| B23 | 1.23 ratio |
| B24 | 1.23 ratio |
| B25 | 1.07 ratio |
| B26 | 0.09 ratio |
| B27 | 1.02 ratio |
| B28 | 1.07 ratio |
| B29 | 1.08 ratio |

The binders below were run against T4, human neonatal Fc receptor (FcRn), biotinylated (human, UniProt P55899 24-297; P61769 21-119, biotinylated (biotin-X-NHS)) (assay: FcRn ELISA, pH 6.0;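 note: Streptavidin-captured FcRn plates, IgG variants titrated 2 h at pH 6.0, peroxidase anti-human IgG read at 450 nm, variant over standard concentration at the standard curve mid-point absorbance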).
T4 construct: captured on streptavidin plates
T4 sequence (P55899 24-297 limits assumed, chain 1 of 2): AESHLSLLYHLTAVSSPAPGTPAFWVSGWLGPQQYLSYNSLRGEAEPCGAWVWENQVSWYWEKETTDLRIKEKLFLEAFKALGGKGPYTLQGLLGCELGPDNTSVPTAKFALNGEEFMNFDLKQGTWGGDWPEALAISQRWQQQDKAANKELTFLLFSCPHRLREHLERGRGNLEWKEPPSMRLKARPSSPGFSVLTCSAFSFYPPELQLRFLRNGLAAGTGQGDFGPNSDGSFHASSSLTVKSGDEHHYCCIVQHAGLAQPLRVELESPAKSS
T4 sequence (P61769 21-119 limits assumed, chain 2 of 2): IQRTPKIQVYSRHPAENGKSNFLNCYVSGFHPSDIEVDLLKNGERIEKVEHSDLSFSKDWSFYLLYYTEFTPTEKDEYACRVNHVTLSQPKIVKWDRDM

| Binder | ratio to native IgG1 |
| --- | --- |
| B1 | 1.15 ratio |
| B2 | 1.44 ratio |
| B3 | 1.62 ratio |
| B4 | 0.93 ratio |
| B5 | 1.05 ratio |
| B6 | 1.03 ratio |
| B7 | 1.51 ratio |
| B8 | 0.79 ratio |
| B9 | 1.25 ratio |
| B10 | 1.02 ratio |
| B11 | 0.79 ratio |
| B12 | 0.82 ratio |
| B13 | 1.18 ratio |
| B14 | 1.24 ratio |
| B15 | 1.03 ratio |
| B16 | 1.34 ratio |
| B17 | 0.85 ratio |
| B18 | 0.38 ratio |
| B19 | 1.49 ratio |
| B20 | 1.14 ratio |
| B21 | 1.05 ratio |
| B22 | 1.45 ratio |
| B23 | 1.5 ratio |
| B24 | 1.3 ratio |
| B25 | 0.76 ratio |
| B26 | 1.23 ratio |
| B27 | 0.41 ratio |
| B28 | 0.63 ratio |
| B29 | 0.1 ratio |

Each binder was assayed against T5, human FcγRIA α subunit extracellular domain-His6-GST fusion (human, UniProt P12314 16-292) (assay: FcγRI ELISA and THP-1 cells, averaged).
T5 construct: extracellular domain; also called GST-FcγRIA; CD64; not shown: glutathione S transferase (GST)
T5 sequence (P12314 other isoform, or with tags, fused parts or gaps): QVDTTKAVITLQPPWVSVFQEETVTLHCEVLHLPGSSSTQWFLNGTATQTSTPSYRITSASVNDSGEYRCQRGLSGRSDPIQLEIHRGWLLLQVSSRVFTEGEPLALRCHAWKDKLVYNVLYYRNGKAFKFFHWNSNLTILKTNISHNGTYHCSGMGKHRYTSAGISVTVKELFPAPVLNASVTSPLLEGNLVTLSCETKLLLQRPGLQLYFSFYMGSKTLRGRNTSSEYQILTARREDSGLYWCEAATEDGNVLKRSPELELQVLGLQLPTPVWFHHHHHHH

| Binder | ratio to native IgG1 |
| --- | --- |
| B1 | 1.05 ratio |
| B2 | 0.92 ratio |
| B3 | 0.93 ratio |
| B4 | 1.05 ratio |
| B5 | 0.61 ratio |
| B6 | 0.98 ratio |
| B7 | 1.06 ratio |
| B8 | 1 ratio |
| B9 | 1 ratio |
| B10 | 1.09 ratio |
| B11 | 1.01 ratio |
| B12 | 1.04 ratio |
| B13 | 1.18 ratio |
| B14 | 0.95 ratio |
| B15 | 1.03 ratio |
| B16 | 1.05 ratio |
| B17 | 0.96 ratio |
| B18 | 0.88 ratio |
| B19 | 0.6 ratio |
| B20 | 0.9 ratio |
| B21 | 1.06 ratio |
| B22 | 1 ratio |
| B23 | 1.01 ratio |
| B24 | 1.02 ratio |
| B25 | 0.99 ratio |
| B26 | 0.16 ratio |
| B27 | 0.98 ratio |
| B28 | 0.93 ratio |
| B29 | 0.96 ratio |
